Assay results taken from publication PMC6604206, “Cascade synthesis of uridine-5′-diphosphate glucuronic acid by coupling multiple whole cells expressing hyperthermophilic enzymes” (Microbial Cell Factories, 2019).

B1: StUSP (Sulfurisphaera tokodaii str. 7) (protein)
chain: MKAFILAAGSGERLEPITHTRPKAFVPILSKPLIEYQIEYLRKCGIRDITVIVSSKNKEYFEKKLKEISIVTQKDDIKGTGAAILSAKFNDEALIIYGDLFFSNEKEICNIITLKENAIIGVKVSNPKDYGVLVLDNQNNLSKIIEKPEIPPSNLINAGIYKLNSDIFTYLDKISISERGELELTDAINLMAKDHRVKVIEYEGYWMDIGKPWNIIDVNKWALDNLVFSQNLGNVEDNVKIKGKVIIEEDAEIKSGTYIEGPVYIGKGSEIGPNSYLRPYTILVEKNKIGASVEVKESVIMEGSKIPHLSYVGDSVIAEDVNFGAGTLIANLRFDEKEVKVNVKGKRISSGRRKLGAFIGGHVRTGINVTILPGVKIGAYARIYPGAVVNRDVGYGEFFKV

Key:
PiUDH = molecular target: T1, PiUDH (Pyrobaculum islandicum, UniProt A1RUM9); assay: whole-cell conversion, PAMN-HPLC and ESI-MS of UDP-GlcA; assay type: cell-based; conditions: BL21-PiUDH whole cells, NAD+ varied 0-1.2 mM, 2.3 mM UDP-Glc, sodium phosphate
T1 construct: gene Pisl_1505; N-terminal His6 tag, codon-optimised gene, pET15b, whole E. coli BL21(DE3) cells

purified protein = substrate: O=P(O)(O)O[C@H]1O[C@H](CO)[C@@H](O)[C@H](O)[C@H]1O; assay: purified protein; assay type: biochemical, Sulfurisphaera tokodaii; conditions: 3 mM UTP, 20 mM MgCl2, 50 mM Tris-HCl pH 7.5, 80 °C (also measured at 37 °C)

T1 sequence (A1RUM9 entry or part of it): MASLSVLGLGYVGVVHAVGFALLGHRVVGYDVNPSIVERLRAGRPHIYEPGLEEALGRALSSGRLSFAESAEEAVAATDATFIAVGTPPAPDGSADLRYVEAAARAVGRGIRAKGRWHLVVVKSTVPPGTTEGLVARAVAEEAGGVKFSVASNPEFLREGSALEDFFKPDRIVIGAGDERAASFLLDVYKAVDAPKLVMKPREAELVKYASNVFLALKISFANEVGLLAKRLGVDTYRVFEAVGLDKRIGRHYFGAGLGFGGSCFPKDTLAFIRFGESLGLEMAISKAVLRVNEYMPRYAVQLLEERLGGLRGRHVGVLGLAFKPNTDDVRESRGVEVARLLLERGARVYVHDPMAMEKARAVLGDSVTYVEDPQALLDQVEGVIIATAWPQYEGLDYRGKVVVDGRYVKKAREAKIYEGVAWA

Row | Molecule | whole-cell conversion, PAMN-HPLC and ESI-MS of UDP-GlcA (PiUDH) | Km (purified protein) | Vmax (purified protein)
1 | NC(=O)c1ccc[n+]([C@@H]2O[C@H](COP(=O)(O)OP(=O)(O)OC[C@H]3O[C@@H](n4cnc5c(N)ncnc54)[C@H](O)[C@@H]3O)[C@@H](O)[C@H]2O)c1 [NAD^+] | The synthetic efficiency showed a positive correlation with the concentration of NAD^+ |  | 
2 | B1 |  | 1474 ± 225 µM | 14500 ± 227 µmol/min/mg
